Test results as given in the nanobody polyreactivity screen of Harvey et al. (2022).

Test: yeast display, Sf9 membrane polyspecificity reagent, FACS + sequencing; frameworks hold sequencing errors
Outline: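 In a synthetic yeast display library (Saccharomyces cerevisiae BJ5465), nanobody expression was induced with galactose for 36–48 hours. FACS gates were set low and high (top ~1%) using anti-HA fluorescence for expression and streptavidin fluorescence for binding of the Sf9 membrane reagent. Each polyreactivity label is drawn from the gate of origin.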

Sequence	polyreactivity (PSR sort gate)
QVQLVESGGGLVQSGGSLRLSCAASGYIFFFNAMGWYRQAPGKERELVAAITRRGVSTYYADSVKGRCTISRDNAKNTVFLQMNSLKPEDTAVYYCATEHNHLGYYYWGQGTQVTVSS	low polyreactivity
QVQLVESGGGLVQSGGSLRLSCAASGYTFLEYTMGWYRQAPGKERELVAAITSGGSTKYADSVKGRFTISRDNAKNTVYLQMNSLKPEDTAVYYCNARHYSREFDYWGQGTQVTVSS	low polyreactivity
QVQLVESGGGLVQSGGSLRLSCAAYGLILTHYSMGRYRQAPGKESELVAAIDYGGGSNTYYADSVKGLFTISRDNAKNTDYLQMNSLKPEDTAVYYCAAYRAGNSYDPRLNYWGQGTQVTVSS	high polyreactivity
QVQLVESGGGLVQSGGSLRLSCAGSGSTLYYYVMGWYRQAPGKERELVAAISSSGDSTYYADSVKGRFTISRDNAKNTVSLQMNSLKPEDTAVYYCNAGWYFYGESTDDYWGQGTQVTVSS	low polyreactivity
QVQLVESGGGLVQSGGSLRLSWAASGSIFVTYAMRCYRPAPGKERELVAAINSGGRTNYADSVKGRFTISRDNAMNTVFLNMNSMKPEDTAVYYCAATGRYFDPYYRYDYWGQGTQVTVSS	low polyreactivity
QVQLVESGGGLVQSGGSLRLTCAASGIIFPRYAMGWYRQAPGKERELVAAITRRGGRTYYADSVKGRFTISRDNAKNTVYLQMNSLKPEDTAVYYCNADFISTRPPKATDEDYWGQGTQVTVSS	high polyreactivity
QVQLVESGGGLVQVGCSLRLSCAASGFTFYNNVMGWYRQAPGKERELVAAITSTGSTSYADSVKGRFTISRDNAKNTVYLQMNSLKPEDTAVVYCARAYYYLLGGHYRHKYYWGQGTQVTVSS	high polyreactivity
QVQLVESGGGLVQVGGSLRLICAASGGIFSGNAMGWYRQAPGKERELVAGITNGGRTTYADSVKGRFTISRDNAKNTVYLQMNSLKPEDTAVYYCAAGKIGRRGHQNRLDLDYWGQGTQVTVSS	low polyreactivity
QVQLVESGGGLVQVGGSLRLSCAASGGIFCGNSMGWYRQAPGKERDLVAAISWDASTYYEDTVKGRFTISRDNAMNTVYLQMNSLKPEDTAVYYCNADIPYYFVYDAYDYWGQGTQVNVSS	low polyreactivity
QVQLVESGGGLVRAGGSLRLSCAASGFVYYVMGWYRQAPGKERELVAAISKGGGRTYYADSVKGRFTISRDNAKNTVYLQMNSLKPEDTAVYYCAAAFWRITRYGMDYWGQGTQVTVSS	high polyreactivity
QVQLVESGGGSVQAGGRLRLRCAASGLIFYYYAMGWYRQAPGKERELVADIDRGGDTYYADSVKGRFTISRDNAKNNVYLQMNSLKPEDTEVYYCAAVDSYGYVPVFGYWGQGTQVTVSS	low polyreactivity
QVQLVESGGGSVQAGGSLRLSCAASGFTFRYYAMGWYRQAPGKERELVAGISSRGGSTYYADSVKGRFTISRDNAKNTVYLQMNSLKPEDTAVYYCATERFLLGLGYDYWGQGTQVTVSS	high polyreactivity
QVQLVESGGGSVQAGGSLRLSCAASGFTFRYYAMGWYRQAPGKERELVARISYSGTSTYYADSVKGRFTISRDNAKNTVYLQMNSLKPEDTAVYYCAKLHRTYRQYIYDYWGQGTQVTVSS	high polyreactivity
QVQLVESGGGSVQAGGSLRLSCAASGRTFVFNAMGWYRQAPGKESELVAGISGSGGSTYYAESVKGRFTISRDNAKNNVYLQMNSLKPEDTAVYYCANTFPRKELDQESVSGLGYWGQGTQVTVSS	low polyreactivity
QVQLVESGGGSVQAGGSLRLSCAASGRTFYGYAMGWYRQAPGKERELGASISRDGSTNYADSVKGRFTISRDNAKNTVYLQMTSLKPEDTAVYYCAADIWYYRYPIYYYSYDYWGQGTQVNVSS	low polyreactivity
QVQLVESGGGSVQAGGSLRLSCAASGSIFAQYTMGWYRQAPGKERELVAVISINGVSTYYADSVKGRFTISRDNAKNTVYLQMNSLKPEDTAVYYCNAGISPYEALGYWGQGTQVTVSS	low polyreactivity

Sequence	polyreactivity (PSR sort gate)
QVQLVESGGGSVQAGGSLRLSCAASGSTFRYYAMGWYRQAPGKERELVARITSRAGRTYYADSVKGRFTISRDNAKNTVYLQMNSLKPEDTAVYYCNTRDFSGYVHALSLYDYWGQGTQVTVSS	high polyreactivity
QVQLVESGGGSVQAGGSLRLSCSASGIIFWYYTMGRNRQAPGKERELVAAISCSSGITYYADSVKGRFTISRDNSKNTVYLQMNSLKPEDTAVYYCAARKFFWRSNYDYWGQGTQVTVSS	low polyreactivity
QVQLVESGGGVVHAGGSLRLSCAASGRIFRKYAMGWYRQAPGKESEFVAAITWSGGSTYYADSVKGRFTISRDNAKNTVYLQMNSLKPEDTAVYYCNAENGYSWDVFSDYWGQGTQVTVSS	low polyreactivity
QVQLVESGGGVVQAGCSLRISCAASGIFRKYAMGWYRQAPGKERELVAAITWGGGRTYYADSVKGRFTISRDNAKNTVYFQMNSLKPEDTAVYYCAAAKTGRGRGTTGYGYCGQGTQVTVSS	high polyreactivity
QVQLVESGGGVVQAGCSLRLSCAASGFTFRTNAMGWYRQAPGIEREFVAAISWSGGSTYYADSVKGRFTISRDNAKNTVYLQMNSLKPEDTAVYYCNADPFHWYYTNMYYWGQGTQVTVSS	high polyreactivity
QVQLVESGGGVVQAGGRLGLSCAASGSTFSQNPMGWYRQAPGKERELVASISSGGSTHYADSVKGRFTISRDNAKNTVYLQMNSLKPEDTAVYYCTTDLPNYVPFIVVEAYNYWGQGTQVTVSS	low polyreactivity
QVQLVESGGGVVQAGGRLRLSCAASGSIFTYYAMGWYRQAPGKERELVAAISYGGGSTYYADSVKGRFTISRDTAKNTVYLQMNSLKPEDTAVYYCNRVVGVKYGYWGQGTQVTVSS	high polyreactivity
QVQLVESGGGVVQAGGSLLLSCAASGRIFWYYAMGWYRQAHGKERELVATITRGGNTYFADSVKGRFTISRDNAKNTVYLQMNSLKPEDNAVYYCAASQRYSVIYYGFSEYDYWGQGTQVTVSS	high polyreactivity
QVQLVESGGGVVQAGGSLRISCAASGSTFGFNAMGWYRQAPGKERELVAAINNSGDSTYYADSVKGRFTISRDNAKNTVYLQMNSLKPEDTAVYYCAAPYLGRYYKNGYWGQGTQVTVSS	low polyreactivity
QVQLVESGGGVVQAGGSLRLICAASGSTFYINTMGWYRPAPGKERELVAAISWTGGRTYYADSVKGRFTISRDNAKNTVYLQLNSLKPEDTAVYYCAAYYNIPDRRRVGYDYWGQGTQVTVSS	high polyreactivity
QVQLVESGGGVVQAGGSLRLSCAASGITFEYNAMGWYRQAPGKERELVAAISLSSGSTYYADSVKGRFTISRDNAKNTVYLQMNCLKPEDTAVYYCNADWQSYGYLWHSSLYYYWGQGTQVTVSS	low polyreactivity
QVQLVESGGGVVQAGGSLRLSCAASGMGWYRQAPGKERELVATITTGGTYADSVKGRFTISRDNAKNTVYLQMNSLKPEDTAVYYCAADGLGSVYYLRYNYWGQGTQVTVSS	low polyreactivity
QVQLVESGGGVVQAGGSLRLSCAASGRIFDIYDMGWYRQAPGKERELVAAITSGRNTYYADSVKGRFTISRDNAKNTVYLQMNSLKPEDTAVSYCAAYSYPPLLWSYDYWGQGTQVTVSS	low polyreactivity
QVQLVESGGGVVQAGGSLRLSCAASGRIFERNAMGSYRQSPVKERELVARITSGGGTYYADSVKGRFTISRDNAKNTVYLQMNSLKPEDSAVYYSAVQYLYRKYRRYDYWGLGTQVTVSS	high polyreactivity
QVQLVESGGGVVQAGGSLRLSCAASGRIFGYYAMGWYRQAPGTERELVAVISSGGSTYADSVKGRFTISRDNAKNPVYLQMNSLKPEDTAVYYCAARHYWSSYRTSRSRYDYWGQGTQVTVSS	high polyreactivity
